Two molecules from article doi:10.1101/2023.02.18.529070 (bioRxiv, 2023) can be followed below.

For the experiment, the target named is recombinant human HER3 extracellular domain (human, UniProt P21860 20-643). Kind of experiment: BLI. (In general: Biolayer interferometry detects binding as a change in optical thickness at a sensor tip.)

For orientation: Kd means a measure of binding affinity in units of concentration.

Chain of recombinant human HER3 extracellular domain (P21860 20-643): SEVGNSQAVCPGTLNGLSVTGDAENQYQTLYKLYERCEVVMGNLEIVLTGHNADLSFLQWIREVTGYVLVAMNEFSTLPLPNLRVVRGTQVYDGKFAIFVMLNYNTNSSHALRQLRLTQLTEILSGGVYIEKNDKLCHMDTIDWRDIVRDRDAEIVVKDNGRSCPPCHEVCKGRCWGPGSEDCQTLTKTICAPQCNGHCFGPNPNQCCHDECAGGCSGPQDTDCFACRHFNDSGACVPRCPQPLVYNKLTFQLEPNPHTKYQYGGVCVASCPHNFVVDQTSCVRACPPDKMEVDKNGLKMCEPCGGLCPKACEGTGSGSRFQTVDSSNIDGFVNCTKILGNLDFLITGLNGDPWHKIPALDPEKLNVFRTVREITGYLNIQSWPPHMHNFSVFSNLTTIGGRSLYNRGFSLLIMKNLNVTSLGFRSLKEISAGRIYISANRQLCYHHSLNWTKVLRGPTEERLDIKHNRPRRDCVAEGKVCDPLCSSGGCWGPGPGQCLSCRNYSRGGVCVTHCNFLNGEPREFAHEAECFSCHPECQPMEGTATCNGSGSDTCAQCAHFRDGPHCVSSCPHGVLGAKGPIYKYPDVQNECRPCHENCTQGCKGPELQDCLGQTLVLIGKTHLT

B1: neuregulin-beta1 (Ser 2-Lys 246 N-terminal fragment) (ligand, human, UniProt Q02297-6 2-246, looked up)
chain: SERKEGRGKGKGKKKERGSGKKPESAAGSQSPALPPRLKEMKSQESAAGSKLVLRCETSSEYSSLRFKWFKNGNELNRKNKPQNIKIQKKPGKSELRINKASLADSGEYMCKVISKLGNDSASANITIVESNEIITGMPASTEGAYVSSESPIRISVSTEGANTSSSTSTSTTGTSHLVKCAEKEKTFCVNGGECFMVKDLSNPSRYLCKCPNEFTGDRCQNYVMASFYKHLGIEFMEAEELYQK
As to B1, the binding result is on record as “binds”.

B2: recombinant human LRG1 (leucine-rich alpha-2-glycoprotein 1) (ligand, UniProt P02750 36-347, looked up)
chain: VTLSPKDCQVFRSDHGSSISCQPPAEIPGYLPADTVHLAVEFFNLTHLPANLLQGASKLQELHLSSNGLESLSPEFLRPVPQLRVLDLTRNALTGLPPGLFQASATLDTLVLKENQLEVLEVSWLHGLKALGHLDLSGNRLRKLPPGLLANFTLLRTLDLGENQLETLPPDLLRGPLQLERLHLEGNKLQVLGKDLLLPQPDLRYLFLNGNKLARVAAGAFQGLRQLDMLDLSNNSLASVPEGLWASLGQPNWDMRDGFDISGNPWICDQNLSDLYRWLQAQKDKMFSQNDTRCAGPEAVKGQTLLAVAKSQ
In the case of B2, the Kd was found to be 100 nM and the “fold binding affinity against neuregulin-HER3” value is more than 3 fold.
